Reference: the supplement of paper PMC7125110
± gives the standard error. For some of these results: Variants at the floor of the assay were thinned out.

B1: glmS ribozyme (parent)
chain: AUAAAAGCGCCAGAACUACAGAAAUGUAGUUGACGAGGAGGAGGUUUAUCGAAUUUUCGGCGGAUGCCUCCAAA

Columns and labels:
Settings in all cases: with glucosamine-6-phosphate
glucosamine-6-phosphate [1] = variants of: B1; test: kcat; higher = faster cleavage; RNA array
Method in brief: (§1)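 kcat and KM were obtained from weighted Michaelis–Menten fits across concentrations of kobs values. Those came from one- or two-exponential decay fits to per-tile medians normalised to baseline and to non-cleaving reference variants. The variants were barcoded ribozymes transcribed in situ by E. coli RNA polymerase on sequenced MiSeq chips and tracked through a hybridised Cy3 probe at 37 °C, with 40 μM to 10 mM glucosamine-6-phosphate in HEPES/KCl/Mg(OAc)2 buffer flowed in.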

glucosamine-6-phosphate [2] = variants of: B1; test: self-cleavage kobs at 40 uM GlcN6P; higher = faster cleavage; RNA array
Method in brief: as §1

glucosamine-6-phosphate [3] = variants of: B1; test: self-cleavage kobs at 160 uM GlcN6P; higher = faster cleavage; RNA array
Method in brief: as §1

glucosamine-6-phosphate [4] = variants of: B1; test: self-cleavage kobs at 640 uM GlcN6P; higher = faster cleavage; RNA array
Method in brief: as §1

glucosamine-6-phosphate [5] = variants of: B1; test: self-cleavage kobs at 2500 uM GlcN6P; higher = faster cleavage; RNA array
Method in brief: as §1

glucosamine-6-phosphate [6] = variants of: B1; test: self-cleavage kobs at 10000 uM GlcN6P; higher = faster cleavage; RNA array
Method in brief: as §1

glucosamine-6-phosphate [7] = variants of: B1; test: KM; higher = weaker cofactor use; RNA array
Method in brief: as §1

Variant | kcat (glucosamine-6-phosphate [1]) [s⁻¹] | self-cleavage kobs at 40 uM GlcN6P (glucosamine-6-phosphate [2]) [s⁻¹] | self-cleavage kobs at 160 uM GlcN6P (glucosamine-6-phosphate [3]) [s⁻¹] | self-cleavage kobs at 640 uM GlcN6P (glucosamine-6-phosphate [4]) [s⁻¹] | self-cleavage kobs at 2500 uM GlcN6P (glucosamine-6-phosphate [5]) [s⁻¹] | self-cleavage kobs at 10000 uM GlcN6P (glucosamine-6-phosphate [6]) [s⁻¹] | KM (glucosamine-6-phosphate [7]) [µM]
C16G G29U U54A | 0.024 ± 0.011 | 0.000213 ± 4.2e-05 | 0.000446 ± 0.00014 | 0.00332 ± 0.00054 | 0.0157 ± 0.0041 | 0.0148 ± 0.0026 | –
A14C G66C | 9.53e-05 ± 3.1e-06 | – | – | – | 5.12e-05 ± 1.5e-05 | 7.85e-05 ± 9.8e-06 | 2140 ± 260
G66U C70U | 0.00205 ± 0.00047 | 6.67e-05 ± 8e-06 | 0.000141 ± 1.7e-05 | 0.000507 ± 4.8e-05 | 0.00124 ± 0.00016 | 0.00175 ± 0.00019 | 1830 ± 590
U30A U45A | 0.00916 ± 0.0024 | 0.000369 ± 6.4e-05 | 0.000872 ± 0.00018 | 0.00285 ± 0.00065 | 0.00515 ± 0.001 | 0.0107 ± 0.0021 | 1290 ± 500
U54G U57G | 3.71e-05 ± 3.7e-06 | – | – | – | – | 3.21e-05 ± 1.2e-05 | 1500 ± 710
G29U A48U | 4.34e-05 ± 5.3e-06 | – | – | – | 4.72e-05 ± 1.3e-05 | 3.9e-05 ± 9.4e-06 | –
C67G U69G | < 1e-05 | – | < 1e-05 | – | – | < 1e-05 | –
U31G A64C | 2.01e-05 ± 3.9e-06 | – | – | – | – | – | –
C16G G32U | 0.000915 ± 8.9e-05 | – | – | 0.000144 ± 3.7e-05 | 0.00032 ± 8.7e-05 | 0.00068 ± 0.00011 | 3800 ± 700
A39C A42G | 0.00493 ± 0.0008 | 0.000141 ± 1.4e-05 | 0.000376 ± 7.6e-05 | 0.00152 ± 0.00029 | 0.00282 ± 0.00046 | 0.0047 ± 0.00074 | 1490 ± 310
G40U U46A | 0.000471 ± 0.00012 | – | – | 6.83e-05 ± 2.4e-05 | 0.00028 ± 5.4e-05 | 0.000331 ± 7.2e-05 | 2940 ± 1400
U55G C70G | 0.000127 ± 2.5e-05 | 2.75e-05 ± 1.4e-05 | 7.54e-05 ± 1.6e-05 | 0.00014 ± 1.9e-05 | 0.000184 ± 3.8e-05 | 9.38e-05 ± 1.8e-05 | –
U65A C70G | 7.88e-05 ± 4.1e-06 | – | 5.95e-05 ± 1.2e-05 | 7.89e-05 ± 1e-05 | 7.95e-05 ± 1e-05 | 7.32e-05 ± 7.6e-06 | 66.3 ± 25
A20G G37C C58A | 1.09e-05 ± 2.8e-06 | – | – | – | – | – | –
U54A U69A | 0.00011 ± 2.2e-05 | – | 0.000107 ± 1.5e-05 | 0.000109 ± 1.9e-05 | 0.000141 ± 2.3e-05 | 8.28e-05 ± 1.5e-05 | –
U46G C67G | 0.000343 ± 3.5e-05 | 2.99e-05 ± 1.3e-05 | 2.86e-05 ± 8.4e-06 | 0.000112 ± 1.1e-05 | 0.000241 ± 2.8e-05 | 0.000295 ± 2.3e-05 | 1360 ± 310
